Test results as given in the supplement of paper PMC10724198.
± gives the standard deviation of the averaged measurements.

Assays:
Saccharomyces cerevisiae [1] = assay: protein stability index of tFT-peptide fusion (C-terminal peptide) (PSI (0-1 scale)); higher = more stable (slower turnover)
Method: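 MPS profiling in S. cerevisiae of the tFT-X12 degron library: putative degron peptides plus stable controls, 12 aa, fused to the C-terminus of a sfGFP-mCherry timer. Cells are FACS-sorted into 8 mCherry/sfGFP bins and deep-sequenced. PSI runs from 0 (unstable) to 1 (stable). Backgrounds are wild type, das1Δ and doa10Δ at 30 °C, and wild type, das1Δ, cdc34-1 and cdc53-1 at 37 °C; 2-3 technical replicates each.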

Saccharomyces cerevisiae [2] = assay: as above; details: genetic background: wild type; temperature: 30 C
[3] = genetic background: cdc34-1, temperature: 37 C
[4] = genetic background: cdc53-1, temperature: 37 C
[5] = genetic background: das1 deletion, temperature: 30 C
[6] = genetic background: das1 deletion, temperature: 37 C
[7] = genetic background: doa10 deletion, temperature: 30 C
[8] = genetic background: wild type, temperature: 30 C
[9] = genetic background: wild type, temperature: 37 C
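Further: PSI is a weighted mean of sequencing reads over stability bins, variants kept only with over 10 reads, mCherry proximal and sfGFP distal, peptide attached via GGGS linker.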

Row | Sequence | protein stability index (Saccharomyces cerevisiae [1]; [3]) | protein stability index (Saccharomyces cerevisiae [1]; [4]) | protein stability index (Saccharomyces cerevisiae [1]; [5]) | protein stability index (Saccharomyces cerevisiae [1]; [6]) | protein stability index (Saccharomyces cerevisiae [1]; [7]) | protein stability index (Saccharomyces cerevisiae [1]; [8]) | protein stability index (Saccharomyces cerevisiae [1]; [9]) | protein stability index (Saccharomyces cerevisiae [2])
1 | THRAVGIGLRCC | 0.558 ± 0.042 | 0.637 ± 0.02 | 0.496 ± 0.029 | 0.645 ± 0.0067 | 0.165 ± 0.01 | 0.186 ± 0.022 | 0.4005 ± 0.0016 | 0.358 ± 0.025
2 | MSHVCICRRLML | 0.68 ± 0.037 | 0.743 ± 0.016 | 0.609 ± 0.025 | 0.712 ± 0.032 | 0.404 ± 0.028 | 0.427 ± 0.0081 | 0.646 ± 0.048 | 0.498 ± 0.011
3 | VVWLFGVSWCWL | 0.429 ± 0.018 | 0.5093 ± 0.0025 | 0.355 ± 0.022 | 0.525 ± 0.006 | 0.313 ± 0.011 | 0.34 ± 0.03 | 0.518 ± 0.015 | 0.419 ± 0.0056
4 | RVVILFVFLVYV | 0.269 ± 0.013 | 0.342 ± 0.0015 | 0.258 ± 0.037 | 0.376 ± 0.0065 | 0.2526 ± 0.0011 | 0.25 ± 0.018 | 0.365 ± 0.014 | 0.3235 ± 0.0031
5 | VLPCSLVPLRLH | 0.66 ± 0.015 | 0.704 ± 0.029 | 0.642 ± 0.012 | 0.702 ± 0.011 | 0.349 ± 0.013 | 0.374 ± 0.026 | 0.548 ± 0.0098 | 0.445 ± 0.014
6 | LLILIVNLRRIG | 0.376 ± 0.0085 | 0.556 ± 0.069 | 0.36 ± 0.04 | 0.607 ± 0.028 | 0.1983 ± 0.0009 | 0.235 ± 0.011 | 0.444 ± 0.025 | 0.281 ± 0.052
7 | HCNRRNKIYWYS | 0.6116 ± 0.00076 | 0.73 ± 0.012 | 0.689 ± 0.063 | 0.739 ± 0.051 | 0.106 ± 0.019 | 0.111 ± 0.032 | 0.189 ± 0.014 | 0.304 ± 0.051
8 | SPPPLFLIVLHL | 0.495 ± 0.0063 | 0.562 ± 0.028 | 0.446 ± 0.021 | 0.639 ± 0.012 | 0.4 ± 0.021 | 0.371 ± 0.048 | 0.52 ± 0.018 | 0.4283 ± 0.0032
9 | VTLLCRFFMLVF | 0.454 ± 0.01 | 0.5149 ± 0.00071 | 0.402 ± 0.025 | 0.543 ± 0.01 | 0.273 ± 0.014 | 0.289 ± 0.014 | 0.428 ± 0.017 | 0.369 ± 0.021
10 | IKSIKQNKIKTI | 0.619 ± 0.051 | 0.648 ± 0.021 | 0.653 ± 0.029 | 0.699 ± 0.026 | 0.186 ± 0.013 | 0.171 ± 0.079 | 0.246 ± 0.032 | 0.292 ± 0.008
11 | LFLVVVVRAGGF | 0.144 ± 0.042 | 0.288 ± 0.058 | 0.214 ± 0.03 | 0.4065 ± 0.0012 | 0.187 ± 0.0076 | 0.208 ± 0.022 | 0.382 ± 0.045 | 0.293 ± 0.0094
12 | WHFMVFFCFCVD | 0.295 ± 0.04 | 0.399 ± 0.061 | 0.317 ± 0.036 | 0.406 ± 0.0098 | 0.28 ± 0.0047 | 0.277 ± 0.023 | 0.355 ± 0.028 | 0.381 ± 0.024
13 | QGILVGCCYVLC | 0.426 ± 0.024 | 0.4409 ± 0.00073 | 0.313 ± 0.021 | 0.5035 ± 0.00077 | 0.2731 ± 0.0018 | 0.3 ± 0.023 | 0.4657 ± 0.0015 | 0.386 ± 0.022
14 | VSRAVCLWRRLL | 0.479 ± 0.006 | 0.68 ± 0.061 | 0.618 ± 0.0096 | 0.7305 ± 0.0018 | 0.0796 ± 0.0058 | 0.104 ± 0.036 | 0.124 ± 0.026 | 0.0882 ± 0.088
15 | PLLPCRPILFLL | 0.559 ± 0.072 | 0.627 ± 0.027 | 0.558 ± 0.028 | 0.6615 ± 0.0026 | 0.125 ± 0.0042 | 0.117 ± 0.014 | 0.182 ± 0.038 | 0.197 ± 0.043
16 | SRSVLLCFCWLC | 0.356 ± 0.055 | 0.4492 ± 0.0017 | 0.411 ± 0.038 | 0.5256 ± 0.0042 | 0.27 ± 0.0089 | 0.264 ± 0.014 | 0.3461 ± 0.00068 | 0.347 ± 0.011
17 | PCFACIAFVLFP | 0.451 ± 0.013 | 0.413 ± 0.093 | 0.356 ± 0.038 | 0.509 ± 0.032 | 0.334 ± 0.013 | 0.343 ± 0.014 | 0.4507 ± 0.0011 | 0.4827 ± 0.004
18 | LAKPTVRKIICV | 0.41 ± 0.0086 | 0.387 ± 0.025 | 0.301 ± 0.049 | 0.4672 ± 0.0038 | 0.263 ± 0.017 | 0.296 ± 0.04 | 0.421 ± 0.0089 | 0.419 ± 0.007
19 | WVFVETVFLVCG | 0.147 ± 0.046 | 0.226 ± 0.04 | 0.176 ± 0.038 | 0.3159 ± 0.0011 | 0.142 ± 0.012 | 0.162 ± 0.03 | 0.2848 ± 0.0003 | 0.25 ± 0.02
20 | GSWGGGWRYVGW | 0.761 ± 0.037 | 0.792 ± 0.016 | 0.663 ± 0.012 | 0.7947 ± 0.0036 | 0.664 ± 0.037 | 0.685 ± 0.023 | 0.759 ± 0.011 | 0.734 ± 0.033

Row | Sequence | protein stability index (Saccharomyces cerevisiae [1]; [3]) | protein stability index (Saccharomyces cerevisiae [1]; [4]) | protein stability index (Saccharomyces cerevisiae [1]; [5]) | protein stability index (Saccharomyces cerevisiae [1]; [6]) | protein stability index (Saccharomyces cerevisiae [1]; [7]) | protein stability index (Saccharomyces cerevisiae [1]; [8]) | protein stability index (Saccharomyces cerevisiae [1]; [9]) | protein stability index (Saccharomyces cerevisiae [2])
21 | FLPLFFLPCLSV | 0.363 ± 0.0091 | 0.372 ± 0.031 | 0.318 ± 0.011 | 0.431 ± 0.015 | 0.315 ± 0.011 | 0.319 ± 0.019 | 0.413 ± 0.0059 | 0.361 ± 0.022
22 | FHLVIYWCVRGP | 0.337 ± 0.013 | 0.453 ± 0.088 | 0.299 ± 0.035 | 0.45 ± 0.0086 | 0.2623 ± 0.0021 | 0.281 ± 0.053 | 0.474 ± 0.034 | 0.428 ± 0.034
23 | DISWVFVLLIFF | 0.333 ± 0.036 | 0.402 ± 0.012 | 0.3 ± 0.033 | 0.485 ± 0.029 | 0.318 ± 0.023 | 0.279 ± 0.039 | 0.445 ± 0.011 | 0.382 ± 0.026
24 | FIVVSFCFFLFF | 0.331 ± 0.06 | 0.382 ± 0.0069 | 0.301 ± 0.023 | 0.4351 ± 0.0036 | 0.31 ± 0.03 | 0.263 ± 0.045 | 0.414 ± 0.013 | 0.343 ± 0.067
25 | VYVSRTRPFSLY | 0.682 ± 0.052 | 0.7141 ± 0.0054 | 0.63 ± 0.011 | 0.728 ± 0.022 | 0.33 ± 0.0094 | 0.3687 ± 0.0034 | 0.573 ± 0.007 | 0.428 ± 0.031
26 | VRVWLLACASKG | 0.3332 ± 0.00082 | 0.423 ± 0.026 | 0.236 ± 0.0066 | 0.378 ± 0.019 | 0.228 ± 0.037 | 0.24 ± 0.015 | 0.3609 ± 0.0016 | 0.281 ± 0.014
27 | CFSVFSVLCFFV | 0.575 ± 0.02 | 0.6301 ± 0.0018 | 0.532 ± 0.03 | 0.627 ± 0.015 | 0.415 ± 0.035 | 0.414 ± 0.019 | 0.513 ± 0.0066 | 0.437 ± 0.029
28 | LFLFVGCSVRRL | 0.528 ± 0.023 | 0.58092 ± 0.00029 | 0.392 ± 0.034 | 0.599 ± 0.021 | 0.374 ± 0.0049 | 0.391 ± 0.014 | 0.5744 ± 0.0024 | 0.4951 ± 0.0047
29 | VFGWWSVVLRVA | 0.0612 ± 0.0012 | 0.0938 ± 0.009 | 0.166 ± 0.027 | 0.249 ± 0.0082 | 0.0577 ± 0.014 | 0.0694 ± 0.017 | 0.0612 ± 0.011 | 0.109 ± 0.029
30 | CVGRPIALAVRT | 0.52676 ± 0.0004 | 0.519 ± 0.048 | 0.375 ± 0.04 | 0.56 ± 0.0093 | 0.338 ± 0.025 | 0.38 ± 0.028 | 0.51959 ± 0.00012 | 0.511 ± 0.022
31 | GWVSCCVWSFLV | 0.243 ± 0.028 | 0.5924 ± 0.0053 | 0.531 ± 0.016 | 0.663 ± 0.0083 | 0.066 ± 0.012 | 0.066 ± 0.0087 | 0.063 ± 0.016 | 0.122 ± 0.015
32 | LFPVASLCLART | 0.643 ± 0.028 | 0.648 ± 0.048 | 0.527 ± 0.036 | 0.663 ± 0.0042 | 0.513 ± 0.022 | 0.524 ± 0.023 | 0.659 ± 0.057 | 0.529 ± 0.065
33 | WFLLILFSAFAV | 0.433 ± 0.021 | 0.463 ± 0.036 | 0.352 ± 0.022 | 0.501 ± 0.0097 | 0.314 ± 0.0041 | 0.3465 ± 0.003 | 0.471 ± 0.0049 | 0.436 ± 0.0045
34 | LYCGLIFFLRGV | 0.6263 ± 0.0019 | 0.6389 ± 0.0017 | 0.516 ± 0.018 | 0.6475 ± 0.0026 | 0.468 ± 0.032 | 0.472 ± 0.029 | 0.612 ± 0.0081 | 0.516 ± 0.084
35 | LLVVFSCFTFMF | 0.259 ± 0.0096 | 0.399 ± 0.042 | 0.277 ± 0.032 | 0.476 ± 0.0058 | 0.254 ± 0.027 | 0.279 ± 0.028 | 0.449 ± 0.022 | 0.38 ± 0.037
36 | SAWGQAFWCQMG | 0.712 ± 0.027 | 0.7859 ± 0.0057 | 0.648 ± 0.019 | 0.764 ± 0.016 | 0.233 ± 0.016 | 0.265 ± 0.014 | 0.555 ± 0.025 | 0.4071 ± 0.00098
37 | VGVLWALIVGVR | 0.167 ± 0.011 | 0.226 ± 0.02 | 0.191 ± 0.035 | 0.36 ± 0.0087 | 0.159 ± 0.0094 | 0.18 ± 0.012 | 0.289 ± 0.043 | 0.251 ± 0.035
38 | VYGSLPVVVCRI | 0.534 ± 0.059 | 0.538 ± 0.013 | 0.409 ± 0.023 | 0.56 ± 0.016 | 0.4 ± 0.022 | 0.413 ± 0.011 | 0.539 ± 0.011 | 0.525 ± 0.065
39 | EQMRRYILVSYV | 0.522 ± 0.021 | 0.609 ± 0.025 | 0.427 ± 0.019 | 0.5998 ± 0.0036 | 0.198 ± 0.0082 | 0.243 ± 0.02 | 0.4255 ± 0.0019 | 0.352 ± 0.033
